{
  "source": "paper PMC4822050",
  "about": "“Hemi-methylated DNA opens a closed conformation of UHRF1 to facilitate its histone recognition” (Nature Communications, 2016)",
  "key": {"PHD-SRA of UHRF1 (human)": {"target": "PHD-SRA of UHRF1 (human)", "assay": "ITC; 0.05 mM protein in the cell, 0.5 mM protein or peptide in the syringe, iTC200, 18 °C, 10 mM HEPES pH 8.0, 100 mM NaCl"}, "UHRF1 TTD, 134-285": {"target": "UHRF1 TTD, 134-285 (UniProt Q96T88)", "assay": "ITC", "conditions": "reference: unmodified Spacer642–664 peptide; sites S651"}, "SRA-Spacer (human)": {"target": "T1, SRA-Spacer (human) (UniProt Q96T88)", "T1 sequence": "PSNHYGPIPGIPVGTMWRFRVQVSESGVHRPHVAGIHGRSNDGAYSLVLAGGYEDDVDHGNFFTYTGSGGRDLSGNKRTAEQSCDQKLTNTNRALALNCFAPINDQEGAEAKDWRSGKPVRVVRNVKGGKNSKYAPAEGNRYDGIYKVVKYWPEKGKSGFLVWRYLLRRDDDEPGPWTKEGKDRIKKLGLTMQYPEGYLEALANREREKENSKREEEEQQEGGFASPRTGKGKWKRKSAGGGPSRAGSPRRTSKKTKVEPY", "assay": "FP", "conditions": "DNA length series; 5-methyl-dC (hemi-methylated CpG); ITC: 10 mM HEPES pH 8.0, 100 mM NaCl, 18 C; EMSA: 20 mM HEPES pH 7.5, 100 mM NaCl, 8% glycerol, 1 mM DTT, on ice; pull-down: 20 mM HEPES-NaOH pH 8.0, 100 mM …"}, "SRA (human)": {"target": "T2, SRA (human) (UniProt Q96T88)", "T2 sequence": "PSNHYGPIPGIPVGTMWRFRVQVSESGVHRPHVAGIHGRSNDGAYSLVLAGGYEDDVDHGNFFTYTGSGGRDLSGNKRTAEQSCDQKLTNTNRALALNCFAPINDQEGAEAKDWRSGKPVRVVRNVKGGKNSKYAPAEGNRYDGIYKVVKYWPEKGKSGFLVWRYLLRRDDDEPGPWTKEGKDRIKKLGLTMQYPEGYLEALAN", "assay": "FP", "conditions": "DNA length series; 5-methyl-dC (hemi-methylated CpG); ITC: 10 mM HEPES pH 8.0, 100 mM NaCl, 18 C; EMSA: 20 mM HEPES pH 7.5, 100 mM NaCl, 8% glycerol, 1 mM DTT, on ice; pull-down: 20 mM HEPES-NaOH pH 8.0, 100 mM …"}},
  "data": [
    {"substance": "H3 peptide (1–17) (from UniProt P68431 2-18)", "values": [
      {"measurement": "fold decrease in binding affinity against the PHD alone", "setting": "PHD-SRA of UHRF1 (human)", "result": 8, "unit": "fold"}
    ]},
    {"substance": "UHRF1 Spacer, 642-664 (from UniProt Q96T88) pS651 Spacer642–664 peptide", "values": [
      {"measurement": "binding against the reference", "setting": "UHRF1 TTD, 134-285", "result": "weaker"}
    ]},
    {"substance": "FAM-20bp-HM-DNA", "values": [
      {"measurement": "Kd", "setting": "SRA-Spacer (human)", "result": 0.4, "unit": "µM"},
      {"measurement": "Kd", "setting": "SRA (human)", "result": 9.59, "unit": "µM"}
    ]},
    {"substance": "FAM-16bp-HM-DNA", "values": [
      {"measurement": "Kd", "setting": "SRA-Spacer (human)", "result": 0.39, "unit": "µM"},
      {"measurement": "Kd", "setting": "SRA (human)", "result": 29.4, "unit": "µM"}
    ]}
  ]
}
